We go through 1 substance from patent US20040121362A1.

The target of assay [1] is Flag-RAI-3 recombinant protein expressed in the stable Flag-RAI-3 CHO cell line (CHO/NFAT G alpha 15), clone B8 (human) (UniProt Q8NFJ5). The assay is described as follows: FACS, gating 100%; parental CHO mean signal 4.82. A general note: Flow cytometry measures light scatter and fluorescence of single cells or particles in a stream.
Assay [2] shares this target. The assay can be described thus: FACS, clone B8 against parental CHO.

Chain of UniProt Q8NFJ5 (Q8NFJ5 other isoform, or with tags, fused parts or gaps): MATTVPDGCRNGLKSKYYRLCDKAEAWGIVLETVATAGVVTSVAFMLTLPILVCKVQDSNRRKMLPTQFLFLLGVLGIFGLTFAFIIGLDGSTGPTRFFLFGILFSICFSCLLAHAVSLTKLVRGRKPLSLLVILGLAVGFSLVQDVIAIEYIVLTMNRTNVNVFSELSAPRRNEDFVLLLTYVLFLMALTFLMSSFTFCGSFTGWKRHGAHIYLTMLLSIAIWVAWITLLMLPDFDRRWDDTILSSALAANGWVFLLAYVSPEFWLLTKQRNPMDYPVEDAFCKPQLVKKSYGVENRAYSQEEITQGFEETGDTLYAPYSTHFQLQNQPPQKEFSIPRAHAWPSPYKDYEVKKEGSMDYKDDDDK

As for “Anti-FLAG FITC (Sigma, Catalog #F4049) (antibody)”, the mean signal in assay [1] was found to be 35. The fold over background in assay [2] amounted to 7 fold.
